Data on one molecule can be found in patent US11033621B2, “Combination therapies targeting tumor-associated stroma or tumor cells” (BIOMED VALLEY DISCOVERIES, INC., priority 2014, dated 2021).

In this test the test system is H460 cells. Nature of the test: H460 non-small cell lung carcinoma xenograft model. The class given is in vivo, athymic nude mice. As to conditions: combination partner Paclitaxel, Day 21. As to the method:
Animals were monitored for regression responses.
The statistical tests were not adjusted for multiple comparisons.
Cultured H460 cells were harvested during exponential growth and resuspended in phosphate buffered saline at a concentration of 1×10^8 cells/mL. 1.0×10^7 tumor cells were injected subcutaneously into the flank of athymic nude mice. Animals were euthanized when tumors reached the pre-determined volume endpoint of 2000 mm^3 or on the final day (Day 88), whichever came first.

B1: M830: TEM8 monoclonal antibody (hIgG1), VH SEQ ID NO:5, VL SEQ ID NO:6; Fab in Table 6 (antibody, V domains shown)
VH: EVQLVESGGGVVQPGRSVRLSCAASGFTFSTYTMHWVRQAPGKGLEWVAIISNDGSNKYYADPVRGRFTISRDNSKNTLYLQMNSLRAEDTAVYYCVRGSSWYRGNWFDPWGQGTLVTVSS
VL: DIQMTQSPSSLSASVGDRVTIACRASQTISRYLNWYQQKPGKAPKLLIYAASSLQSGVSSRFSGSGSGTEFTLTISSLQPEDFATYFCQQTYSPPITFGQGTRLEIKR
modifications: TEM830 mAb VH; TEM830 mAb VL
With B1, the regression result is listed as “(−61%”.
